In assay [1] the target is PD-L1 on cells (UniProt Q9NZQ7). The assay is described as follows: equilibrium binding to cells (method 'Cell'; cell line not stated).
The target is the same in assay [2]. The assay is described as follows: cell-based or functional assay.
For assay [3], the target named is T1, PD-L1 extracellular domain (ECD) (UniProt Q9NZQ7 19-238, limits assumed).
T1 construct: extracellular domain; Soluble PD-L1 used in the yeast-display titrations and in BLI; Tags or biotinylation are not described; also called Programmed death-ligand 1; CD274
T1 sequence (Q9NZQ7 19-238 limits assumed): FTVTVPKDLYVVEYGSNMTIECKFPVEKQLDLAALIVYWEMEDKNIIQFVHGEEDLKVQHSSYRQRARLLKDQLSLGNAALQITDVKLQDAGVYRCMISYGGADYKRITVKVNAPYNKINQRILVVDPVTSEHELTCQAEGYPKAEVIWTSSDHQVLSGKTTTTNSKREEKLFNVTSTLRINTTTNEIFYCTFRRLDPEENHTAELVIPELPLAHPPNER
The assay is described as follows: yeast-displayed clone, soluble PD-L1 titration, flow cytometry. In general terms: A flow cytometer gives signals particle by particle.

The target of assay [4] is T1, PD-L1 extracellular domain (ECD). The experiment in a line: BLI, equilibrium binding, soluble fragment on immobilized PD-L1. For orientation: Biolayer interferometry detects binding as a change in optical thickness at a sensor tip.
The target is the same in assay [5]. The experiment in a line: BLI competition: B8 VNAR immobilized on the tip, 100 nM PD-L1, soluble B8 VNAR titrated as competitor.

Consider six molecules from US20260049144A1 (Johns Hopkins, published 2026).

PD-L1 on cells, sequence (Q9NZQ7 19-290 limits assumed): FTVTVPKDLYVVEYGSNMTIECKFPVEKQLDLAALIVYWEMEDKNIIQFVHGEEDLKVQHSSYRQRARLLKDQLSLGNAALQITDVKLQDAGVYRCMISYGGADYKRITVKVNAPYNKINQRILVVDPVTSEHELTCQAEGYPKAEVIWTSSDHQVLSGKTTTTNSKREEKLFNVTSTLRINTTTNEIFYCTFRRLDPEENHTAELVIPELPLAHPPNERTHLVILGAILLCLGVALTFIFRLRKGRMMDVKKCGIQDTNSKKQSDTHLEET

B1: TS1521 (VNAR, part only; not given: atezolizumab heavy and light chains, part only)
heavy, part: ARVDQTPQTITKETGESLTINCVLRDASYALGSTCWYRKKSGSTNEESISIGGRYVETVNSGSKSFSLRINDLTVEDSGTYRCGVDSWCPPVCSWAYAGCGDGTAVTVNGGGGSGGGGSGGGGS
light, part: GGGGSGGGGSARVDQTPQTITKETGESLTINCVVRDTACALVRTFWYRKKSGSTNEESISKGGRYVETVNRGSKSFSLRINDLTVEDSGTYRCKVFGWCRMRDVYGGGTVVTVN
As usually defined, the Kd is the free concentration of one partner at which half of the binding sites on the other are occupied at equilibrium, for simple one-to-one binding. As for B1, the Kd with PD-L1 on cells [1] was found to be 0.204 nM. In the assay with PD-L1 on cells [2], the TCR activation (NFAT-induced luminescence), FC50, antibody continuously present was determined as 0.51 nM; the TCR activation (NFAT-induced luminescence), potency, antibody removed before addition of effector cells stood at 0.95 nM; the reduction in TCR activation potency, continued presence versus removal of antibody was 1.9 fold.

B2: B8 VNAR (VNAR)
VNAR: ARVDQTPQTITKETGESLTINCVLRDASYALGSTCWYRKKSGSTNEESISIGGRYVETVNSGSKSFSLRINDLTVEDSGTYRCGVDSWCPPVCSWAYAGCGDGTAVTVN
notes: VNAR (shark single domain); Measured on yeast and as a soluble fragment (BLI); Not the same as B8 scFv
Turning to B2, the Kd in assay [3] was 97.3 nM; in assay [4], 33.5 nM. Moreover, the “IC50 (read off the curve)” value in assay [5] is ~100 nM.

B3: C7 VNAR (VNAR)
VNAR: ARVDQTPQTITKETGESLTINCVVRDSACALVRTFWYRKKSGSTNEESISKGGRYVETVNSGSKSFSLRINDLTVEDSGTYRCKVFGWCRMRDVYGGGTVVTVN
notes: Not the same as C7 scFv
On to B3, for which the Kd in assay [3] was 400 nM.

B4: C4 VNAR (VNAR)
VNAR: ARVDQTPLTITKETGESLTINCVLRDSNCALSSTYWYRKSSGSTNEEIISKGGRYVETVNSGSNSFSLRINDLTVEDSGTYRCKVFGWCRMRDVYGGGTVVTVN
B4: in assay [3], the Kd was > 1000 nM.

B5: A9 VNAR (VNAR)
VNAR: ARVDQTPQTITKETGESLTINCVVRDTACALVRTFWYRKKSGSTNEESISKGGRYVETVNRGSKSFSLRINDLTVEDSGTYRCKVFGWCRMRDVYGGGTVVTVN
notes: VNAR (shark variable new antigen receptor single domain) from nurse sharks immunised with the PD-L1 ECD; Measured on yeast and as a soluble fragment (BLI)
With B5, the Kd in assay [3] worked out at 225 nM; in assay [4] it was 127 nM.

B6: B11 VNAR (VNAR)
VNAR: ARVDQTPQTITKETGESLTINCVLRDSNCALSSTYWYRKKSGSTNEESISKGGRYVETVNSGSKSFSLRINDLTVEDSGTYRCRLFVSWLSDYDCATYYVSGGGTVVTVN
For B6, in assay [3], the Kd is > 1000 nM.
